# Test results from PMC6735392, “The miR-26a/AP-2α/Nanog signaling axis mediates stem cell self-renewal and temozolomide resistance in glioma”.
# B1: Nanog(-568/-544) mut (dsDNA)
# DNA 1: GATCCGCCTATTACGTCATCCCAAT
# DNA 2: ATTGGGATGACGTAATAGGCGGATC
# B2: Nanog(-527/-503) WT (dsDNA)
# DNA 1: GGTGGGCCACCGCGCCCGGCCTTTT
# DNA 2: AAAAGGCCGGGCGCGGTGGCCCACC
# B3: Nanog(-527/-503) mut (dsDNA)
# DNA 1: GGTGGGCCACCAAGCCCATACTTTT
# DNA 2: AAAAGTATGGGCTTGGTGGCCCACC
# B4: Nanog(-568/-544) WT (dsDNA)
# DNA 1: GATCCGCCTGCCACGGCCTCCCAAT
# DNA 2: ATTGGGAGGCCGTGGCAGGCGGATC
# Target: GST-AP-2α (UniProt P05549 1-437)
# Assay: EMSA; EMSA/Gel-Shift Kit (Beyotime) binding buffer, 10 μL, 5 μg GST-AP-2α, 2 pmol biotin probe, 30 min room temperature, 4% nondenaturing gel; salt and pH not stated
# Conditions: protein: recombinant, tags: GST, blunt
# Sequence of GST-AP-2α (P05549 whole entry): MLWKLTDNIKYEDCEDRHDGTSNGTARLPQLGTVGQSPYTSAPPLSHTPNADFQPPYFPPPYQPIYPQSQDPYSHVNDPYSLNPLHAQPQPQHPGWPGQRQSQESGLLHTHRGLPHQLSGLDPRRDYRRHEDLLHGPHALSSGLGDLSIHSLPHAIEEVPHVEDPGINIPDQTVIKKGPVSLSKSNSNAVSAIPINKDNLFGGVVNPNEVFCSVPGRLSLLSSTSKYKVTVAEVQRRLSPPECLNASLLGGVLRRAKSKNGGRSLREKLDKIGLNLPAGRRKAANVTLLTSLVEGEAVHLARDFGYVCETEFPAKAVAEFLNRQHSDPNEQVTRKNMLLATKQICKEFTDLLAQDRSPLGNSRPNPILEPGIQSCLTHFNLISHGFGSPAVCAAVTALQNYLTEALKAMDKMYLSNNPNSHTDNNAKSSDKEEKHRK
Binder,binding result (label: 3' biotin),binding result (label: 3' biotin (hot probe))
B1,no binding,
B2,,binds
B3,no binding,
B4,,binds
